Measured values: publication PMC6542726 (Molecular psychiatry, 2018)

Experiments:
[1] = biological target: GABAA receptor associated protein (GABARAP) (mouse) (UniProt Q9DCD6); test: ITC
[2] = biological target: GABAA receptor associated protein (GABARAP) (mouse, UniProt Q9DCD6 1-117); test: ITC
GABAA receptor associated protein (GABARAP), sequence (Q9DCD6 whole entry): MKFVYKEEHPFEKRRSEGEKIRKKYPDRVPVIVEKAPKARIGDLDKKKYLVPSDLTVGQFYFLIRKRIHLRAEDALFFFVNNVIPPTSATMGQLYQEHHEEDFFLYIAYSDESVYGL

GABAA receptor associated protein (GABARAP) (mouse), sequence (Q9DCD6 whole entry): as above

Molecule	Kd [1] [µM]	Kd [2] [nM]
ankyrin-G W1989R (from UniProt O70511 1985-2010) (domain or fragment)	11	–
PEDDWTEFSSEEIREARQAAASHAPS (domain or fragment) [ankyrin-G fragment of 26 amino acids (residues 1985-2010)]	–	2.9
